Test results from the supplement of paper PMC9112550, “Optimization of the antimicrobial peptide Bac7 by deep mutational scanning” (BMC Biology, 2022).

System: Escherichia coli TOP10
Assay: shrunken log2 fold change of peptide-encoding DNA abundance (4.5 h post-induction vs induction); higher = less antimicrobial activity (less host growth inhibition)
Settings: time post-induction: 4.5 h; library: site-saturation at positions 5, 18, 19, 20
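Note: peptides expressed intracellularly from a pBAD plasmid library in pooled LB shake-flask culture, induced with 0.3% L-arabinose, DNA abundance read by NGS, three biological replicates, DESeq2 with apeglm shrinkage.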

Sequence | shrunken log2 fold change
RRIRHRPPRLPRPRPRPRHIPRP | -0.39
RRIRCRPPRLPRPRPRPKPRPRP | 0.749
RRIRARPPRLPRPRPRPMKDPRP | 0.0565
RRIRCRPPRLPRPRPRPQLWPRP | 0.366
RRIRYRPPRLPRPRPRPQFGPRP | 0.03
RRIRARPPRLPRPRPRPMQGPRP | 0.601
RRIRIRPPRLPRPRPRPYVWPRP | -1.33
RRIRLRPPRLPRPRPRPMHVPRP | -0.0348
RRIRFRPPRLPRPRPRPRVRPRP | 0.0771
RRIRRRPPRLPRPRPRPKYKPRP | -0.148
RRIRFRPPRLPRPRPRPMGFPRP | -0.0249
RRIRRRPPRLPRPRPRPLINPRP | -0.0185
RRIRGRPPRLPRPRPRPQKPPRP | 0.0894
RRIRPRPPRLPRPRPRPWCDPRP | -0.301
RRIRLRPPRLPRPRPRPWVAPRP | 0.29
RRIRNRPPRLPRPRPRPVSEPRP | -0.253
RRIRSRPPRLPRPRPRPLDAPRP | 0.259
RRIRDRPPRLPRPRPRPDNDPRP | 0.212
RRIRARPPRLPRPRPRPPILPRP | -0.261
RRIRQRPPRLPRPRPRPVFRPRP | -0.0986
RRIRARPPRLPRPRPRPVCIPRP | 0.11
RRIRNRPPRLPRPRPRPYTFPRP | -0.0167
RRIRIRPPRLPRPRPRPHKCPRP | -0.639
RRIRVRPPRLPRPRPRPAEPPRP | 0.218
RRIRLRPPRLPRPRPRPNEEPRP | 0.00826

Sequence | shrunken log2 fold change
RRIRWRPPRLPRPRPRPRCNPRP | 0.0644
RRIRVRPPRLPRPRPRPYPAPRP | -0.715
RRIRERPPRLPRPRPRPKPKPRP | 0.0931
RRIRIRPPRLPRPRPRPWMLPRP | -0.13
RRIRYRPPRLPRPRPRPIHKPRP | -0.6
RRIRQRPPRLPRPRPRPFIMPRP | -1.46
RRIRTRPPRLPRPRPRPRRDPRP | 0.394
RRIRCRPPRLPRPRPRPIVAPRP | 0.0801
RRIRYRPPRLPRPRPRPLKCPRP | -0.301
RRIRGRPPRLPRPRPRPGWHPRP | 0.277
RRIRQRPPRLPRPRPRPENCPRP | -0.219
RRIRWRPPRLPRPRPRPFWHPRP | -0.0195
RRIRTRPPRLPRPRPRPPNGPRP | 0.104
RRIRLRPPRLPRPRPRPPPQPRP | 1.12
RRIRQRPPRLPRPRPRPLRPPRP | 0.699
RRIRDRPPRLPRPRPRPENQPRP | 0.351
RRIRTRPPRLPRPRPRPQLDPRP | -0.0457
RRIRGRPPRLPRPRPRPNPGPRP | 0.158
RRIRHRPPRLPRPRPRPRWTPRP | 0.0902
RRIRVRPPRLPRPRPRPVALPRP | 0.0693
RRIRIRPPRLPRPRPRPHGYPRP | -0.714
RRIRTRPPRLPRPRPRPYNMPRP | -0.568
RRIRWRPPRLPRPRPRPADKPRP | 0.141
RRIRRRPPRLPRPRPRPFPMPRP | 0.0657
RRIRRRPPRLPRPRPRPVEKPRP | -0.00451

Sequence | shrunken log2 fold change
RRIRFRPPRLPRPRPRPSIVPRP | -0.663
RRIRVRPPRLPRPRPRPKGQPRP | 0.147
RRIRERPPRLPRPRPRPYWDPRP | -0.111
RRIRRRPPRLPRPRPRPDLVPRP | 0.0743
RRIRQRPPRLPRPRPRPCSRPRP | 0.0758
RRIRPRPPRLPRPRPRPCWTPRP | -0.397
RRIRCRPPRLPRPRPRPIYSPRP | -0.59
RRIRDRPPRLPRPRPRPIWCPRP | -0.0176
RRIRARPPRLPRPRPRPHCNPRP | 0.717
RRIRQRPPRLPRPRPRPCQCPRP | -0.034
RRIRIRPPRLPRPRPRPKQCPRP | -0.178
RRIRCRPPRLPRPRPRPLPNPRP | -0.0586
RRIRNRPPRLPRPRPRPQRWPRP | 0.176
RRIRTRPPRLPRPRPRPYDPPRP | -0.0474
RRIRCRPPRLPRPRPRPICMPRP | -0.491
RRIRDRPPRLPRPRPRPTGTPRP | 0.0829
RRIRCRPPRLPRPRPRPFRTPRP | -0.421
RRIRIRPPRLPRPRPRPIYMPRP | 0.00602
RRIRIRPPRLPRPRPRPTSFPRP | -0.11
RRIRYRPPRLPRPRPRPCFEPRP | -0.614
RRIRYRPPRLPRPRPRPPCNPRP | -0.0594
RRIRYRPPRLPRPRPRPITFPRP | -0.864
RRIRPRPPRLPRPRPRPDFNPRP | 1.09
RRIRARPPRLPRPRPRPIQHPRP | -0.132
RRIRERPPRLPRPRPRPFRSPRP | -0.0241

Sequence | shrunken log2 fold change
RRIRMRPPRLPRPRPRPVVMPRP | -0.0363
RRIRHRPPRLPRPRPRPCHRPRP | -0.126
RRIRFRPPRLPRPRPRPRRHPRP | 0.822
RRIRIRPPRLPRPRPRPFHYPRP | 0.0334
RRIRNRPPRLPRPRPRPMDLPRP | 0.00408
RRIRVRPPRLPRPRPRPAKKPRP | 0.0179
RRIRIRPPRLPRPRPRPWDVPRP | -0.468
RRIRMRPPRLPRPRPRPQQKPRP | 0.0182
RRIRYRPPRLPRPRPRPFVNPRP | 0.017
RRIRRRPPRLPRPRPRPGDSPRP | 0.269
RRIRARPPRLPRPRPRPSKMPRP | -0.00925
RRIRPRPPRLPRPRPRPMLFPRP | -0.0744
RRIRNRPPRLPRPRPRPNSLPRP | -0.335
RRIRWRPPRLPRPRPRPDVCPRP | -0.0101
RRIRARPPRLPRPRPRPCCAPRP | 0.774
RRIRVRPPRLPRPRPRPRNGPRP | 0.0197
RRIRQRPPRLPRPRPRPDTLPRP | 0.016
RRIRHRPPRLPRPRPRPYEPPRP | -0.451
RRIRNRPPRLPRPRPRPKCPPRP | -0.124
RRIRYRPPRLPRPRPRPIIFPRP | 0.0131
RRIRLRPPRLPRPRPRPIVTPRP | 2.68
RRIRCRPPRLPRPRPRPQKYPRP | -0.698
RRIRKRPPRLPRPRPRPCSGPRP | 0.00663
RRIRVRPPRLPRPRPRPAQYPRP | -0.0437
RRIRQRPPRLPRPRPRPEKHPRP | -0.214

Sequence | shrunken log2 fold change
RRIRTRPPRLPRPRPRPTNQPRP | -0.067
RRIRHRPPRLPRPRPRPTTDPRP | -0.136
RRIRMRPPRLPRPRPRPPEDPRP | 1.66
RRIRHRPPRLPRPRPRPHKMPRP | -0.266
RRIRVRPPRLPRPRPRPMKDPRP | -0.109
RRIRIRPPRLPRPRPRPGRGPRP | 0.268
RRIRHRPPRLPRPRPRPTRVPRP | 0.211
RRIRCRPPRLPRPRPRPSKLPRP | -0.674
RRIRHRPPRLPRPRPRPYSMPRP | -0.878
RRIRNRPPRLPRPRPRPNRLPRP | 0.0192
RRIRVRPPRLPRPRPRPLGPPRP | 0.342
RRIRKRPPRLPRPRPRPAPAPRP | 1.05
RRIRGRPPRLPRPRPRPKSRPRP | 0.0451
RRIRGRPPRLPRPRPRPNWTPRP | 0.0497
RRIRCRPPRLPRPRPRPPQRPRP | 0.94
RRIRLRPPRLPRPRPRPLHFPRP | -0.197
RRIRGRPPRLPRPRPRPPKTPRP | 1.15
RRIRCRPPRLPRPRPRPAQVPRP | -0.053
RRIRIRPPRLPRPRPRPVKEPRP | -0.0496
RRIRWRPPRLPRPRPRPSSQPRP | -0.317
RRIRERPPRLPRPRPRPCIYPRP | -0.328
RRIRYRPPRLPRPRPRPYLYPRP | -0.109
RRIRVRPPRLPRPRPRPCLCPRP | -0.491
RRIRSRPPRLPRPRPRPNPMPRP | -0.111
RRIRDRPPRLPRPRPRPIYKPRP | -0.175
